Results published in patent publication US20160298128A1 (University of California, published 2016).

B1: AtCVΔC-HA (AtCV without the C-terminus conserved domain, HA tagged; DEX::AtCVΔC-HA plants) (other)
chain: ASLLKTTSKISCRRTENETEPRKNKCSFVLGVAATVVIGGIQINDVASVEAAVVKSPVEEMAAGVVPPR
notes: The making of the construct is not described; not shown: HA tag
B2: AtCV-HA (Arabidopsis thaliana chloroplast vesiculation protein, At2G25625, fused to an HA tag; expressed from DEX:AtCV-HA, line DEX-3) (other)
chain: ASLLKTTSKISCRRTENETEPRKNKCSFVLGVAATVVIGGIQINDVASVEAAVVKSPVEEMAAGVVPPRRWSDKRTCPPWLENSLETIVPENLPRPSAHRRLELAGLAKGDAPPVGVVMTRVNRGGCFSV
notes: Expressed in planta after DEX induction; also called DEX:AtCV-HA-3; full length AtCV; not shown: HA tag from vector pBAV 154

How the values were obtained:
[1] = molecular target: T1, PsbO1, photosystem II subunit (endogenous protein in Arabidopsis protein extracts) (Arabidopsis thaliana, UniProt P23321 86-332); experiment: Co-IP with anti-PsbO antibody and Protein A beads, immunoblot with anti-HA
T1 construct: Endogenous protein; also called PSII subunit PsbO1
T1 sequence (P23321 86-332 limits assumed): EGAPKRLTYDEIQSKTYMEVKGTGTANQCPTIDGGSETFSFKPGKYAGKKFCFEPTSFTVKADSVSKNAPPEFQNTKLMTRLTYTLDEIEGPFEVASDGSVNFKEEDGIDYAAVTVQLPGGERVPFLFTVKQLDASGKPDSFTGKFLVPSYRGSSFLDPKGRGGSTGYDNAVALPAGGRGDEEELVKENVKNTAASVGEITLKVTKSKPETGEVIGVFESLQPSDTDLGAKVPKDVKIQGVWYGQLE

[2] = molecular target: T1, PsbO1, photosystem II subunit …; experiment: Co-IP with anti-HA magnetic beads from DEX-3 plant extracts, LC-MS/MS
Protocol: Four-day-old seedlings of Col-0 and transgenic plants DEX:AtCV-HA-3 (DEX-3) were cultured in MS/2 media containing […] for 4 days and then kept in the dark for additional 2 days. The shoots of plants were harvested, ground in liquid N2 and incubated at 4° C. for 3 h with lysis buffer provided by μMACS HA Isolation Kit (Miltenyl Biotec, San Diego, Calif., USA), containing Protease Inhibitor Cocktail (Sigma-Aldrich, St. Louis, Mo., USA). Co-immunoprecipitation was performed using anti-HA magnetic beads from μMACS HA Isolation Kit (Miltenyl Biotec, San Diego, Calif., USA) and incubating the cell lysis with beads at 4° C. for 2 h. LC-MS/MS analysis was performed in Genome Center of University California, Davis, as described previously (Shipman-Roston et al. 2010, Plant Physiol 152: 1297-1308). Scaffold (version Scaffold 3) was used to validate MS/MS-based peptide and protein identification. Peptide identifications were accepted if they could be established at >80.0% probability. […]
To elucidate mechanism(s) by which AtCV disrupts chloroplasts, we identified AtCV potential interacting proteins using co-immunoprecipitation (Co-IP) and subsequent identification of interactors by LC-MS/MS (Smaczniak et al. 2012, Nat Protoc 7: 2144-2158). […] In order to confirm this interaction, we used bimolecular fluorescence complementation (BiFC).

| Binder | binding result [1] | binding result [2] |
| --- | --- | --- |
| B1 | no binding |  |
| B2 |  | binds |
